Consider eleven molecules from patent US6458943 (INSTITUT NATIONAL DE LA SANTE ET DE LA RECHERCHE MEDICALE, dated 2002).

Assay [1] has as its target T1, hD53 bait (GAL4 DNA-binding domain fusion, pAS2-1hD53) (human, UniProt P04386 1-147 (Saccharomyces cerevisiae entry)).
T1 construct: Fusion expressed in yeast; also called full-length hD53 bait
Put plainly: yeast two-hybrid screening of a human breast carcinoma cDNA library in Y190 (His+ lacZ+).

Assay [2] deals with T2, hD52 bait (GAL4 DNA-binding domain fusion, pAS2-1hD52) (human, UniProt P04386 1-147 (Saccharomyces cerevisiae entry)).
T2 construct: Fusion expressed in yeast; also called full-length hD52 bait
Put plainly: yeast two-hybrid, Y190 co-transfectants, HIS3/lacZ reporters; interactor (GAL4-AD fusion) against bait (GAL4-DB fusion). The method, then:
(§1) Interactions between baits and interactors were assessed by qualitatively and/or quantitatively determining HIS3 and/or lacZ reporter gene activity in Y190 co-transfectants.
(§2) Interactions between D52-like proteins within the yeast two-hybrid system, as measured by quantitative β-galactosidase assays. […] Three (or two*) colonies from each co-transfected Y190 strain were cultured in the absence of histidine, and assayed separately for β-galactosidase activity (see Methods). The mean number of β-galactosidase activity units obtained for each co-transfection is presented, ± the standard error.

Assay [3] addresses T1, hD53 bait (GAL4 DNA-binding domain …). The description is as above. As to the method: as §1, §2
The target in assay [4] is T3, hD54+ins2 bait (GAL4 DNA-binding domain fusion, pAS2-1hD54+ins2) (human, UniProt P04386 1-147 (Saccharomyces cerevisiae entry)).
T3 construct: Fusion expressed in yeast
Described as above. As to the method: as §1, §2

The target in assay [5] is T4, hD54-ins2 bait (GAL4 DNA-binding domain fusion, pAS2-1hD54-ins2) (human, UniProt P04386 1-147 (Saccharomyces cerevisiae entry)).
T4 construct: Fusion expressed in yeast
Described as above. As to the method: as §1, §2

Assay [6] has as its target GST protein (glutathione S-transferase alone) (UniProt P08515 1-218 = GST). Put plainly: GST pull-down, autoradiography. As to the method:
Proteins were isolated by incubating E. coli samples in isotonic lysis buffer (10 mM potassium phosphate pH 8.0, 140 mM KCl, 3 mM MgCl_2, 1 mM DTT, 0.5% Nonidet P-40, 0.5 mM PMSF) for 15 min on wet ice, followed by brief sonication. Protein product sizes were verified by electrophoresing pre- and post-induction protein samples on 10% SDS-polyacrylamide gels, followed by Coomassie Brilliant Blue staining. Post-induction protein extracts were incubated with glutathione-agarose (Sigma) which had been previously saturated in 0.5% (w/v) BSA (fraction V, Boehringer-Mannheim). Recombinant proteins (2–5 μg) bound to 30 μl glutathione agarose were then incubated with 7 μl of each in vitro translation reaction, and 2.6 mg soluble BL21 protein extract, prepared as described in Ausubel, F. M., el al., *Current Protocols in Molecular Biology* Vol. 3 (1996), for 2 h at 4° C. Matrixes were washed 3 times with 1 ml cold buffer (50 mM potassium phosphate pH 7.5, 150 mM KCl, 10 mM MgCl_2, 10% (v/v) glycerol, 1% Triton X-100, 0.5 mM PMSF), and bound proteins were eluted in 12 μl SDS-loading buffer (50 mM Tris pH 6.8, 2% (w/v) SDS, 10% (v/v) glycerol, 10% (v/v) 2-mercaptoethanol) by boiling for 5 min. Eluted proteins (6 μl) were separated on 10% SDS-polyacrylamide gels, which were stained with Coomassie Brilliant Blue, dried, and exposed to autoradiographic film (BioMax, Kodak) for 10 days at −80° C.

Chain of GST protein (glutathione S-transferase alone) (P08515 whole entry): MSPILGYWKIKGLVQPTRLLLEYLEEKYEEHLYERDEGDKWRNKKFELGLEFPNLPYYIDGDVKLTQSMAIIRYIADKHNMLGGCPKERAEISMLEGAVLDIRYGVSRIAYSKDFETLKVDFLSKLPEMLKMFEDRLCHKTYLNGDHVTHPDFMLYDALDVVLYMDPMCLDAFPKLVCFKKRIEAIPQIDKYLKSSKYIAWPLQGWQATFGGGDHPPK

B1: +5 hD53 library interactor (novel hD53 isoform, pAD-GAL4 clone) (other)
chain: PSALFGGANFNQSGNIADSSLSFTFTNSSNGPNLITTQTNSQALSQPIASSNVHDNFMNNEITASKIDDGNNSKPLSPGWTDQTAYNAFGITTGMFNTTTMDDVYNYLFDDEDTPPNPKKESSWLPWSEVLHRPWRNHPICLLETEPLQGTDEDAVASADFSSMLSEEEKEELKAELVQLEDEITTLRQVLSAKERHLVEIKQKLGMNLMNELKQNFSKSWHDMQTTTAYKKTHETLSHAGQKATAAFSNVGTAISKKFGDMRRK
notes: range 761-881; also called nt 1 (Ser^1)
B1: in assay [1], the binding result is “binds”.

B2: hD53 library interactor, pAD-GAL4 clone beginning at nt 111 of the hD53 cDNA (<Met1) (other)
chain: PSALFGGANFNQSGNIADSSLSFTFTNSSNGPNLITTQTNSQALSQPIASSNVHDNFMNNEITASKIDDGNNSKPLSPGWTDQTAYNAFGITTGMFNTTTMDDVYNYLFDDEDTPPNPKKEMEAQAQGLLETEPLQGTDEDAVASADFSSMLSEEEKEELKAELVQLEDEITTLRQVLSAKERHLVEIKQKLGMNLMNELKQNFSKSWHDMQTTTAYKKTHETLSHAGQKATAAFSNVGTAISKKFGDMSYSIRHSISMPAMRNSPTFKSFEERVETTVTSLKTKVGGTNPNGGSFEEVLSSTAHASAQSLAGGSRRTKEEELQC
notes: range 761-881; also called nt 111 (<Met^1)
In the case of B2, in assay [1], the binding result was “binds”.

B3: hD53 library interactor, pAD-GAL4 clone beginning at nt 81 of the hD53 cDNA (<Met1) (other)
chain: PSALFGGANFNQSGNIADSSLSFTFTNSSNGPNLITTQTNSQALSQPIASSNVHDNFMNNEITASKIDDGNNSKPLSPGWTDQTAYNAFGITTGMFNTTTMDDVYNYLFDDEDTPPNPKKEMEAQAQGLLETEPLQGTDEDAVASADFSSMLSEEEKEELKAELVQLEDEITTLRQVLSAKERHLVEIKQKLGMNLMNELKQNFSKSWHDMQTTTAYKKTHETLSHAGQKATAAFSNVGTAISKKFGDMSYSIRHSISMPAMRNSPTFKSFEERVETTVTSLKTKVGGTNPNGGSFEEVLSSTAHASAQSLAGGSRRTKEEELQC
notes: range 761-881; also called nt 81 (<Met^1)
Consider B3, for which the binding result in assay [1] is recorded as “binds”.

B4: hD54+ins2 interactor (GAL4 activation domain fusion, pACT2hD54+ins2) (other)
chain: ANFNQSGNIADSSLSFTFTNSSNGPNLITTQTNSQALSQPIASSNVHDNFMNNEITASKIDDGNNSKPLSPGWTDQTAYNAFGITTGMFNTTTMDDVYNYLFDDEDTPPNPKKEMDSAGQDINLNSPNKGLLSDSMTDVPVDTGVAARTPAVEGLTEAEEEELRAELTKVEEEIVTLRQVLAAKEKHCGELKRRLGLSTLGELKQNLSRSWHDVQVSSAYVKTSEKLGEWNEKVTQSDLYKKTQETLSQAGQKTSAALSTVGSAISRKLGDMRNSATFKSFEDRVGTIKSKVVGDRENGSDNLPSSAGSGDKPLSDPAPF
notes: range 768-881
Take B4: the binding result in assay [2], in assay [3], in assay [4] and in assay [5] was “binds” in each case.

B5: hD54-ins2 interactor (GAL4 activation domain fusion, pACT2hD54-ins2) (other)
chain: ANFNQSGNIADSSLSFTFTNSSNGPNLITTQTNSQALSQPIASSNVHDNFMNNEITASKIDDGNNSKPLSPGWTDQTAYNAFGITTGMFNTTTMDDVYNYLFDDEDTPPNPKKEMDSAGQDINLNSPNKGLLSDSMTDVPVDTGVAARTPAVEGLTEAEEEELRAELTKVEEEIVTLRQVLAAKEKHCGELKRRLGLSTLGELKQNLSRSWHDVQVSSAYKKTQETLSQAGQKTSAALSTVGSAISRKLGDMRNSATFKSFEDRVGTIKSKVVGDRENGSDNLPSSAGSGDKPLSDPAPF
notes: range 768-881
In the case of B5, the binding result in assay [2], in assay [3], in assay [4] and in assay [5] was “binds” in each case.

B6: hD53 interactor (GAL4 activation domain fusion, pACT2hD53) (other)
chain: ANFNQSGNIADSSLSFTFTNSSNGPNLITTQTNSQALSQPIASSNVHDNFMNNEITASKIDDGNNSKPLSPGWTDQTAYNAFGITTGMFNTTTMDDVYNYLFDDEDTPPNPKKEMEAQAQGLLETEPLQGTDEDAVASADFSSMLSEEEKEELKAELVQLEDEITTLRQVLSAKERHLVEIKQKLGMNLMNELKQNFSKSWHDMQTTTAYKKTHETLSHAGQKATAAFSNVGTAISKKFGDMSYSIRHSISMPAMRNSPTFKSFEERVETTVTSLKTKVGGTNPNGGSFEEVLSSTAHASAQSLAGGSRRTKEEELQC
notes: range 768-881
Regarding B6, the binding result in assay [2], in assay [3], in assay [4] and in assay [5] was “binds” each time.

B7: mD52(1-163) interactor (GAL4 activation domain fusion, pACT2mD52(1-163)) (other)
chain: ANFNQSGNIADSSLSFTFTNSSNGPNLITTQTNSQALSQPIASSNVHDNFMNNEITASKIDDGNNSKPLSPGWTDQTAYNAFGITTGMFNTTTMDDVYNYLFDDEDTPPNPKKEMDRGEQGLLKTEPVAEEGEDAVTMLSAPEALTEEEQEELRRELTKVEEEIQTLSQVLAAKEKHLAELKRKLGISSLQEFKQNIAKGWQDVTATNAYKKTSETLSQAGQKASAAFSSVGSVITKKLEDVKNSPTFKSFEEKVENLKSKVGGAKPAGGDFGEVLN
notes: range 768-881
For the molecule B7, the binding result in assay [2], in assay [3], in assay [4] and in assay [5] was “binds” in each case.

B8: in vitro-translated 35S-labelled hD52 (pTL1hD52) (other)
chain: MDRGEQGLLRTDPVPEEGEDVAATISATETLSEEEQEELRRELAKVEEEIQTLSQVLAAKEKHLAEIKRKLGINSLQELKQNIAKGWQDVTATSAYKKTSETLSQAGQKASAAFSSVGSVITKKLEDVKNSPTFKSFEEKVENLKSKVGGTKPAGGDFGEVLNSAANASATTTEPLPEKTQESL
modifications: 35S-methionine label
B8: the binding result in assay [6] was “no binding”.

B9: hD52 interactor (GAL4 activation domain fusion, pAD-GAL4hD52) (other)
chain: PSALFGGANFNQSGNIADSSLSFTFTNSSNGPNLITTQTNSQALSQPIASSNVHDNFMNNEITASKIDDGNNSKPLSPGWTDQTAYNAFGITTGMFNTTTMDDVYNYLFDDEDTPPNPKKEMDRGEQGLLRTDPVPEEGEDVAATISATETLSEEEQEELRRELAKVEEEIQTLSQVLAAKEKHLAEIKRKLGINSLQELKQNIAKGWQDVTATSAYKKTSETLSQAGQKASAAFSSVGSVITKKLEDVKNSPTFKSFEEKVENLKSKVGGTKPAGGDFGEVLNSAANASATTTEPLPEKTQESL
notes: range 761-881; also called hD52^c
In the case of B9, the binding result in assay [1], in assay [2], in assay [4] and in assay [5] was “binds” in each case.

B10: in vitro-translated 35S-labelled hD54-ins2 (pTL1hD54-ins2) (other)
chain: MDSAGQDINLNSPNKGLLSDSMTDVPVDTGVAARTPAVEGLTEAEEEELRAELTKVEEEIVTLRQVLAAKEKHCGELKRRLGLSTLGELKQNLSRSWHDVQVSSAYKKTQETLSQAGQKTSAALSTVGSAISRKLGDMRNSATFKSFEDRVGTIKSKVVGDRENGSDNLPSSAGSGDKPLSDPAPF
modifications: 35S-methionine label
With B10, the binding result in assay [6] is “no binding”.

B11: in vitro-translated 35S-labelled mD52 (pTL1mD52) (other)
chain: MDRGEQGLLKTEPVAEEGEDAVTMLSAPEALTEEEQEELRRELTKVEEEIQTLSQVLAAKEKHLAELKRKLGISSLQEFKQNIAKGWQDVTATNAYKKTSETLSQAGQKASAAFSSVGSVITKKLEDVKNSPTFKSFEEKVENLKSKVGGAKPAGGDFGEVLNSTANATSTMTTEPPPEQMTESP
modifications: 35S-methionine label
For B11, in assay [6], the binding result was “no binding”.
